Results as given in patent US20070065430A1 (GlaxoSmithKline, published 2007).
Changes are numbered by the printed parent chain. Each block holds one binder with its values, some of them ahead of it.

Key:
[1] = molecular target: T1, recombinantly expressed human NOGO-A (hNOGO) (human, UniProt Q9NQC3 586-785, limits assumed); experiment: SPR, Biacore3000; hNOGO amine-coupled to CM5 chip, antibody in solution
T1 sequence (looked up): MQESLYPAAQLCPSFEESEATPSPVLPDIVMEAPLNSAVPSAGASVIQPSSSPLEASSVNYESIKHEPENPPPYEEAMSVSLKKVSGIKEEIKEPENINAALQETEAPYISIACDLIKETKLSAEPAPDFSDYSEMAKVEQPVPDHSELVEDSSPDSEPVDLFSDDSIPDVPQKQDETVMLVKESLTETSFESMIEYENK
Description: The binding kinetics of the anti-NOGO monoclonal antibody (mAb) to recombinantly expressed human NOGO-A (hNOGO) was analysed using the Biacore3000 biosensor. The methodology was as followed:
hNOGO was immobilised to a CM5 chip by primary amine coupling using the Biacore Wizard program designed for targeted immobilisation levels. The CM5 sensor surface was activated by passing a solution of 50 mM N-hydroxy-succinimide (NHS) and 200 mM N-ethyl-N′-dimethylaminopropyl carbonide (EDC). Then using a 300 nM solution of hNOGO in 5 mM sodium acetate, pH5.0, a range of concentrations between 50-200 resonance units of hNOGO were immobilised. After immobilisation was complete any still activated esters were blocked by an injection of 1 M ethanolamine hydrochloride, pH8.5.
The H1L11 mAb (see example 8) was diluted down in HBS-EP (10 mM HEPES, pH 7.4, 150 mM NaCl, 3 mM EDTA, and 0.005% P-20 surfactant) and binding studies were carried out at concentrations ranging between 0.1-100 nM. For kinetic analysis a flowrate of 60 μl/minute was used, with no mass transfer effects seen. All concentrations were performed in duplicate, in a random order with buffer blanks included. Regeneration was achieved either by the single injection of a 15 μl pulse of 50 mM sodium hydroxide alone or the injection of 15 μl of 100 mM H₃PO₄, followed by a subsequent injection of 15 μl of 50 mM sodium hydroxide. […] All runs were referenced against a blanked sensor surface (one that had been activated and blocked as described earlier but had no addition of ligand). Analysis of binding was carried out using the BIAevaluation kinetic analysis software version 4.1. Biacore analysis of other antibodies of the invention essentially followed the same protocol as described herein.

[2] = molecular target: T2, GST-human NOGO-A56 fusion protein (amino acids 586-785 of human NOGO-A) (human, UniProt Q9NQC3 586-786); experiment: ELISA; GST-human NOGO-A56 coated at 1 µg/ml, anti-human kappa peroxidase detection
T2 construct: Expressed in E. coli BL21 and purified on glutathione-sepharose; Coated on plates for the ELISAs and dried onto wells for the neurite outgrowth assay; also called GST-NOGO-A56; GST-Nogo5&6
T2 sequence: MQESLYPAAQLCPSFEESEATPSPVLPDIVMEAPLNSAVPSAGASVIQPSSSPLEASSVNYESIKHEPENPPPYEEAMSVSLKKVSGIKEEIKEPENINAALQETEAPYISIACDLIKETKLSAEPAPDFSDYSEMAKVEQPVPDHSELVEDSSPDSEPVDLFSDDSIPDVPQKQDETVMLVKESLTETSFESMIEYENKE
Description: GST-human NOGO-A56 at 1 μg/ml in 50 mM Tris pH9.5 was coated onto Nunc Immunosorp plates (100 μl per well) at 4° C. overnight. Wells were rinsed once with TBS+0.05% tween then incubated with 2% BSA in TBS+0.05% tween to block non-specific binding sites at room temperature for Ihour. Antibodies were diluted in TBS+0.05% tween+2% BSA to 10 μg/ml and ½ dilutions made from this. Antibodies were added to wells in duplicate and incubated at room temperature for 1 hour. Wells were washed three times with TBS+0.05% tween then incubated with anti-human kappa peroxidase conjugate (1:2000) for 1 hour. Washed three times with TBS+0.05% tween and then incubated with 100 μl OPD peroxidase substrate (Sigma) per well for 10 minutes. The colour reaction was stopped by the addition of 25 μl concentrated H₂SO₄. Optical density at 490 nm was measured using a plate reader. Background values read from wells with no antibody were subtracted.
FIGS. 35A to C illustrates the dose-dependent binding of humanised antibody H1L11 in comparison with the chimera (HcLc) to human NOGO-A56 in an ELISA assay.

rat NOGO-A = molecular target: T3, rat NOGO-A (rat, UniProt Q9JK11 173-975, limits assumed); experiment: SPR, Biacore; similar analysis using rat NOGO-A
T3 construct: Used in 'a similar analysis' by Biacore
T3 sequence (looked up): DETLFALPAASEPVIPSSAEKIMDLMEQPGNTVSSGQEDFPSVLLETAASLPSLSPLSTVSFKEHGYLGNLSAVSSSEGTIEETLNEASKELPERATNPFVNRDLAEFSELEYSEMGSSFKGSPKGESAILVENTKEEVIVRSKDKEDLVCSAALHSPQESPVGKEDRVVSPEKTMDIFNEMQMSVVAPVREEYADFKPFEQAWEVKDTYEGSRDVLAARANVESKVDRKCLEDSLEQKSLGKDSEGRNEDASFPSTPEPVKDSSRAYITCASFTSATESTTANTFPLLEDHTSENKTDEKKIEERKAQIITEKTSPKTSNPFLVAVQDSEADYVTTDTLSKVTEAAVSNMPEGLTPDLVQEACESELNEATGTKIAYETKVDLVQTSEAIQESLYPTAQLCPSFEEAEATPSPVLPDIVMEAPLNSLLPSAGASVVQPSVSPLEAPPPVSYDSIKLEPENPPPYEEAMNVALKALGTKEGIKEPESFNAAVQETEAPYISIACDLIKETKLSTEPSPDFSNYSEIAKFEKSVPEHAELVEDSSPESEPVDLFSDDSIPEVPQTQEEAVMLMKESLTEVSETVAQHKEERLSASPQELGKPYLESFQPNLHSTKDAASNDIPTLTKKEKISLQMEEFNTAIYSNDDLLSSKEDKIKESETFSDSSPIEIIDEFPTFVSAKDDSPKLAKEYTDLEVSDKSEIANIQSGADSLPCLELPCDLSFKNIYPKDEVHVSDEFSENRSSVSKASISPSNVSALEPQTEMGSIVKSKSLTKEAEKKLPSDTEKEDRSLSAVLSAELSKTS

B2: Anti-NOGO antibody 15C3/3 (mouse monoclonal) (antibody, V domains shown)
VH: QVQLQQSGAELVKPGASVKISCKASGYAFSSYWMNWVKQRPGKGLEWIGQIYPGDGDTNYNGKFKGKATLTADKSSSTAYMQLSSLTSEDSAVYFCAVRFDYWGQGTTLTVSS
VL: DIVMTQAAPSVPVTPGESVSISCRSSKSLLHSNGNTYLYWFLQRPGQSPQLLIYRMSNLASGVPDRFSGSGSGTAFTLRISRVEAEDVGVYYCMQHLEYPLTFGAGTKLELK
notes: Mouse hybridoma antibody; also called Mouse 15C3
Kd (rat NOGO-A): 24.9 nM
koff (rat NOGO-A): 0.00087 s⁻¹
kon (rat NOGO-A): 46000 M⁻¹ s⁻¹
Kd [1]: 17.5 nM
koff [1]: 0.000828 s⁻¹
kon [1]: 40700 M⁻¹ s⁻¹

B3: Anti-NOGO antibody 2C4/1 (mouse monoclonal) (antibody, V domains shown)
VH: EVQLVESGGGLVKPGGSLKLSCAASGFTFSCYAMSWVRQTPEKRLEWVASISDGGSYTYYPDNVKGRFTISRDNAKNNLYLQMSHLKSEDTAMYYCAKELLFDYWGQGTTLTVSS
VL: DVVMTQTPLSLPVSLGDQASISCRSSQSLVHSNGNTYLHWYLQKPGQSPKLLIYKVSNRFSGVPDRFSGSGSGTDFTLKISRVEAEDLGVYFCSQSTHVPLTFGAGTKLELK
notes: Mouse hybridoma antibody; also called Mouse 2C4
Kd (rat NOGO-A): 3.9 nM
koff (rat NOGO-A): 0.000533 s⁻¹
kon (rat NOGO-A): 162000 M⁻¹ s⁻¹
Kd [1]: 8 nM
koff [1]: 0.000644 s⁻¹
kon [1]: 80900 M⁻¹ s⁻¹

B5: Anti-NOGO antibody 2A10/3 (mouse monoclonal) (antibody, V domains shown)
VH: QVQLQQPGTELVKPGASVKLSCKASGYTFTSYWMHWVKQRPGQGLEWIGNINPSNGGTNYNEKFKSKATLTVDKSSSTAYMQLSSLTSEDSAVYYCELGQGYWGQGTTLTVSS
VL: DIVITQDELSNPVTSGESVSISCRSSKSLLYKDGKTYLNWFLQRPGQSPQLLIYLMSTRASGVSDRFSGSGSGTDFTLEISRVKAEDVGVYYCQQLVEYPLTFGAGTKLELK
notes: Mouse hybridoma antibody; also called Mouse 2A10; 2A10-BR
Kd (rat NOGO-A): 1 nM
koff (rat NOGO-A): 0.00101 s⁻¹
kon (rat NOGO-A): 1.26e+06 M⁻¹ s⁻¹
Kd [1]: 0.8 nM
koff [1]: 0.00184 s⁻¹
kon [1]: 2.9e+06 M⁻¹ s⁻¹

Further lines, results first:

Kd [1]: 22.2 nM
koff [1]: 0.0215 s⁻¹
kon [1]: 1e+06 M⁻¹ s⁻¹
EC50 [2]: 0.118 µg/mL
B1: Humanised anti-NOGO antibody H1L11 (antibody, V domains shown)
VH: QVQLVQSGAEVKKPGASVKVSCKASGYTFTSYWMHWVRQAPGQGLEWMGNINPSNGGTNYNEKFKSRVTMTRDTSTSTVYMELSSLRSEDTAVYYCELGQGYWGQGTTVTVSS
VL: DIVITQSPLSLPVTLGQPASISCRSSKSLLYKDGKTYLNWFQQRPGQSPQLLIYLMSTRASGVPDRFSGGGSGTDFTLKISRVEAEDVGVYYCQQLVEYPLTFGQGTKLEIK
notes: It was expressed transiently in CHO cells; also called H1l L11

Kd [1]: 1.26 nM
koff [1]: 0.00249 s⁻¹
kon [1]: 2.23e+06 M⁻¹ s⁻¹
EC50 [2]: 0.022 µg/mL
B4: Chimeric 2A10 (HcLc) (antibody, human IgG1, kappa, V domains shown)
VH: B5 VH with T108L, L109V
VL: DIVITQDELSNPVTSGESVSISCRSSKSLLYKDGKTYLNWFLQRPGQSPQLLIYLMSTRASGVSDRFSGSGSGTDFTLEISRVKAEDVGVYYCQQLVEYPLTFGAGTKLELKR
notes: Murine 2A10 V regions on human IgG1/k wild type C regions; also called chimaera of 2A10; the chimera
